Data from patent US20220348666A1 (SUZHOU CONNECT BIOPHARMACEUTICALS, published 2022).
Where “and” joins values, the source holds several entries; their conditions need not be identical. Equal values may be shown once.

Legend:
[1] = target: T1, sIL-4Rα (antigen, expressed according to NM_000418.4) (human, UniProt P24394 26-232, limits assumed); assay: indirect ELISA, sIL-4Rα coated on plate, enzyme labeled secondary antibody, run 1
T1 construct: Soluble form coated on the ELISA plate; also called human interleukin-4 receptor alpha
T1 sequence (looked up): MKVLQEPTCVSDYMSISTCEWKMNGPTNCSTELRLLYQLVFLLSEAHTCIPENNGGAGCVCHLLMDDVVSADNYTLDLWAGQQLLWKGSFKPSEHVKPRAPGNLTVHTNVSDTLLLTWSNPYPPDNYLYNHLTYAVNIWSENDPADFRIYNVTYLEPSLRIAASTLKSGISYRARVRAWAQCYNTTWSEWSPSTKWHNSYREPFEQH
Experimental: (§1) The antigen (sIL-4Rα, expressed according to NM_000418.4) was coated and absorbed on a solid phase plate for ELISA, and then plate was washed, blocked and washed again before adding the samples to be tested for binding with the antigen. The samples to be tested were dilutions of the formulation prepared according to Example 6 of the present application, and the dilutions were obtained by diluting the formulation with 1% BSA to an antibody concentration of 1000 ng/mL, and subsequently performing a gradient dilution from an initial concentration of 1000 ng/mL to a concentration of 0 ng/mL. The unbound antibody was removed through washing after incubation, and an enzyme labeled secondary antibody was added for further incubation. After the unbound enzyme labeled secondary antibody was removed through washing, enzyme reaction substrate was added for color developing. Finally, the reaction was stopped by adding a stop solution, and absorbance values were read at 450 nm and 655 nm on a microplate reader. According to the absorbance values, half effective concentration EC₅₀ was calculated by curve fitting.

[2] = target: T1, sIL-4Rα (antigen, expressed according …); assay: indirect ELISA, sIL-4Rα coated on plate, enzyme labeled secondary antibody, run 5
Experimental: as §1

[3] = target: T1, sIL-4Rα (antigen, expressed according …); assay: indirect ELISA, sIL-4Rα coated on plate, enzyme labeled secondary antibody, run 2
Experimental: as §1

[4] = target: T1, sIL-4Rα (antigen, expressed according …); assay: indirect ELISA, sIL-4Rα coated on plate, enzyme labeled secondary antibody, run 3
Experimental: as §1

[5] = target: T1, sIL-4Rα (antigen, expressed according …); assay: indirect ELISA, sIL-4Rα coated on plate, enzyme labeled secondary antibody, run 4
Experimental: as §1

[6] = target: T1, sIL-4Rα (antigen, expressed according …); assay: indirect ELISA, sIL-4Rα coated on plate, enzyme labeled secondary antibody, run 6
Experimental: as §1

[7] = target: T1, sIL-4Rα (antigen, expressed according …); assay: indirect ELISA, sIL-4Rα coated on plate, enzyme labeled secondary antibody, average value of 6 runs
Experimental: as §1

[8] = target: T2, human interleukin-4 receptor alpha on HEK Blue IL4/IL13 cells (human, UniProt P24394 26-825); assay: cell-based or functional assay
T2 sequence (looked up): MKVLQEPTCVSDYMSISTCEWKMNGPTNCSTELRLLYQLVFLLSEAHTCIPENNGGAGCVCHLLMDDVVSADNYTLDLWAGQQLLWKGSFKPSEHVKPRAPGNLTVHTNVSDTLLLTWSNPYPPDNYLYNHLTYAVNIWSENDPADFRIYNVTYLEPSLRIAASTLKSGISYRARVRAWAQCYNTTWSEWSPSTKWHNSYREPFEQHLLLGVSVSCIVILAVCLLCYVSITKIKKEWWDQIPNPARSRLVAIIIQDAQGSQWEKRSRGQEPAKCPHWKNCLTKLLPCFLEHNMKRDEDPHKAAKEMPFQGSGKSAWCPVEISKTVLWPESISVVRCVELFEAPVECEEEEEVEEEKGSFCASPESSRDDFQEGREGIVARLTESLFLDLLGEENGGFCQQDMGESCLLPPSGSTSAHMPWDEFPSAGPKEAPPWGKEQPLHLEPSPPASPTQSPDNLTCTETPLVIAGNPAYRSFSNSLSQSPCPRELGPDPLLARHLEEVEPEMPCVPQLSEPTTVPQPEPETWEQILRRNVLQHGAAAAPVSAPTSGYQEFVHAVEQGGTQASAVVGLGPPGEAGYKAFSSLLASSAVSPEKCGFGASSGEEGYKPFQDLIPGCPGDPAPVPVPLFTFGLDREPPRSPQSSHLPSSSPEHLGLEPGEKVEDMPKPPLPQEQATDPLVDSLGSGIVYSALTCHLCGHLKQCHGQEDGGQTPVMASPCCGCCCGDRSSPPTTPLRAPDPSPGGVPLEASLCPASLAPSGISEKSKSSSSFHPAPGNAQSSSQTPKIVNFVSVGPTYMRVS

B1: CBP-201 (antibody, human IgG4 S228P, kappa, V domains shown)
VH: EVQLVESGGGLVQPGGSLRLSCAASGFTFSRNAMFWVRQAPGKGLEWVSGIGTGGATSYADSVKGRFTISRDNAKNSLYLQMNSLRAEDTAVYYCARGRYYFDYWGQGTLVTVSS
VL: EIVLTQSPGTLSLSPGERATLSCRASQSVSSSYLAWYQQKPGQAPRLLIYGASSRATGIPDRFSGSGSGTDFTLTISRLEPEDFAVYYCQQYDHSAGWTFGQGTKVEIKR
notes: Monoclonal antibody; also called CBP-201 antibody; CBP-201 formulation
For B1, the EC50 [1] was 1.59 ng/mL and 1.4 ng/mL, the EC50 [2] was 1.77 ng/mL and 1.84 ng/mL and the EC50 [3] was 1.52 ng/mL and 1.28 ng/mL. The EC50 [4] was 1.84 ng/mL and 1.77 ng/mL, the EC50 [5] was 1.85 ng/mL and 1.8 ng/mL and the EC50 [6] was 1.53 ng/mL and 1.45 ng/mL. The EC50 [7] was 1.69 ng/mL and 1.56 ng/mL and the “IC50 (average value) of blocking STAT-6 signal transduction, HEK Blue IL4/IL13 cells with 0.5 ng/mL IL4, Quanti-blue absorbance at 650 nM” value [8] was 4.19 ng/mL and 4.51 ng/mL.
